Assay results from patent US20240241135A1 (SENBOLL BIOTECHNOLOGY, published 2024).

What was measured:
[1] = target: T1, recombinant human regenerating islet-derived protein 1α (REG1A) (human, UniProt P05451 23-166, limits assumed); assay: sandwich ELISA; capture 4H8F1; REG1A 1.23 ng/mL
T1 construct: also called recombinant human REG1A; recombinant REG1A
T1 sequence (looked up): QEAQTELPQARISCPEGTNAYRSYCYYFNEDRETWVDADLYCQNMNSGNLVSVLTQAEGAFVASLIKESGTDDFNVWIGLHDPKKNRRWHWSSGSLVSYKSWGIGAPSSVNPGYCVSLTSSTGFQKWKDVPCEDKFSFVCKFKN
Summary of the method: (§1)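 Sandwich ELISA with the capture monoclonal antibody coated overnight at 4 °C in PBS, then blocking for 2 h at 37 °C. Recombinant human REG1A in basic diluent (100 μL per well) was incubated for 1 h at 37 °C. It was then detected with a horseradish peroxidase-based detection antibody system and TMB substrate for 15 min at 37 °C, and stopped with 0.2M sulfuric acid. OD value is the absorbance at 450 nm minus that at 620/630 nm.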

[2] = target: T1, recombinant human regenerating …; assay: sandwich ELISA; capture 25F3C4; REG1A 3.70 ng/mL
Summary of the method: as §1

[3] = target: T1, recombinant human regenerating …; assay: sandwich ELISA; capture 12F12A10; REG1A 1.23 ng/mL
Summary of the method: as §1

[4] = target: T1, recombinant human regenerating …; assay: sandwich ELISA; capture 4H8F1; REG1A 100.00 ng/mL
Summary of the method: as §1

[5] = target: T1, recombinant human regenerating …; assay: sandwich ELISA; capture 25F3C4; REG1A 33.33 ng/mL
Summary of the method: as §1

[6] = target: T1, recombinant human regenerating …; assay: sandwich ELISA; capture 25F3C4; REG1A 1.23 ng/mL
Summary of the method: as §1

[7] = target: T1, recombinant human regenerating …; assay: sandwich ELISA; capture 21B11D2; REG1A 1.23 ng/mL
Summary of the method: as §1

[8] = target: T1, recombinant human regenerating …; assay: sandwich ELISA; capture 4H8F1; REG1A 3.70 ng/mL
Summary of the method: as §1

[9] = target: T1, recombinant human regenerating …; assay: sandwich ELISA; capture 12F12A10; REG1A 100.00 ng/mL
Summary of the method: as §1

[10] = target: T1, recombinant human regenerating …; assay: sandwich ELISA; capture 4H8F1; REG1A 33.33 ng/mL
Summary of the method: as §1

[11] = target: T1, recombinant human regenerating …; assay: sandwich ELISA; capture 11D11B11; REG1A 0 ng/mL (blank)
Summary of the method: as §1

[12] = target: T1, recombinant human regenerating …; assay: sandwich ELISA; capture 4H8F1; REG1A 0 ng/mL (blank)
Summary of the method: as §1

[13] = target: T1, recombinant human regenerating …; assay: sandwich ELISA; capture 4H8F1; REG1A 11.11 ng/mL
Summary of the method: as §1

[14] = target: T1, recombinant human regenerating …; assay: sandwich ELISA; capture 12F12A10; REG1A 11.11 ng/mL
Summary of the method: as §1

[15] = target: T1, recombinant human regenerating …; assay: sandwich ELISA; capture 21B11D2; REG1A 11.11 ng/mL
Summary of the method: as §1

[16] = target: T1, recombinant human regenerating …; assay: sandwich ELISA; capture 11D11B11; REG1A 1.23 ng/mL
Summary of the method: as §1

[17] = target: T1, recombinant human regenerating …; assay: sandwich ELISA; capture 21B11D2; REG1A 0 ng/mL (blank)
Summary of the method: as §1

[18] = target: T1, recombinant human regenerating …; assay: sandwich ELISA; capture 11D11B11; REG1A 3.70 ng/mL
Summary of the method: as §1

[19] = target: T1, recombinant human regenerating …; assay: sandwich ELISA; capture 11D11B11; REG1A 11.11 ng/mL
Summary of the method: as §1

[20] = target: T1, recombinant human regenerating …; assay: sandwich ELISA; capture 21B11D2; REG1A 3.70 ng/mL
Summary of the method: as §1

[21] = target: T1, recombinant human regenerating …; assay: sandwich ELISA; capture 11D11B11; REG1A 100.00 ng/mL
Summary of the method: as §1

[22] = target: T1, recombinant human regenerating …; assay: sandwich ELISA; capture 11D11B11; REG1A 33.33 ng/mL
Summary of the method: as §1

[23] = target: T1, recombinant human regenerating …; assay: sandwich ELISA; capture 25F3C4; REG1A 11.11 ng/mL
Summary of the method: as §1

[24] = target: T1, recombinant human regenerating …; assay: sandwich ELISA; capture 21B11D2; REG1A 33.33 ng/mL
Summary of the method: as §1

[25] = target: T1, recombinant human regenerating …; assay: sandwich ELISA; capture 12F12A10; REG1A 0 ng/mL (blank)
Summary of the method: as §1

[26] = target: T1, recombinant human regenerating …; assay: sandwich ELISA; capture 21B11D2; REG1A 100.00 ng/mL
Summary of the method: as §1

[27] = target: T1, recombinant human regenerating …; assay: sandwich ELISA; capture 12F12A10; REG1A 33.33 ng/mL
Summary of the method: as §1

[28] = target: T1, recombinant human regenerating …; assay: sandwich ELISA; capture 12F12A10; REG1A 3.70 ng/mL
Summary of the method: as §1

[29] = target: T1, recombinant human regenerating …; assay: sandwich ELISA; capture 25F3C4; REG1A 100.00 ng/mL
Summary of the method: as §1

[30] = target: T1, recombinant human regenerating …; assay: sandwich ELISA; capture 25F3C4; REG1A 0 ng/mL (blank)
Summary of the method: as §1

B1: antibody 4H8F1 (antibody, V domains shown)
VH: QVTLKESGPGILQPSQTLSLTCSFSGFSLSTSGMSVGWIRQPSGKGLEWLAHIWWNDDKFYNPALKSRLTISKDTSKNQIFLKIASVVTADSATYYCARIEEGWFAYWGQGTLVTVST
VL: SIVMTQTPKFLLVSVGDRVTITCKASQTMSNDVAWYQQKPGQSPKLLIYYASNRYTGVPDRFTGSGYGTDFTFTISTVQAEDLAVYFCQQDYSSPLTFGAGTKLELKR
notes: Mouse monoclonal from hybridoma, stated mouse IgG1/Kappa; also called 4H8F1-biotin; Antibody 1
[1]
  OD value: 0.074 OD
[2]
  OD value: 0.082 OD
[3]
  OD value: 1.3 OD
[4]
  OD value: 0.09 OD
[5]
  OD value: 0.085 OD
[6]
  OD value: 0.087 OD
[7]
  OD value: 0.078 OD
[8]
  OD value: 0.079 OD
[9]
  OD value: 3.18 OD
[10]
  OD value: 0.081 OD
[11]
  OD value: 1.21 OD
[12]
  OD value: 0.074 OD
[13]
  OD value: 0.081 OD
[14]
  OD value: 3.05 OD
[15]
  OD value: 0.073 OD
[16]
  OD value: 1.37 OD
[17]
  OD value: 0.075 OD
[18]
  OD value: 2.87 OD
[19]
  OD value: 3.87 OD
[20]
  OD value: 0.077 OD
[21]
  OD value: 4.24 OD
[22]
  OD value: 4.48 OD
[23]
  OD value: 0.078 OD
[24]
  OD value: 0.078 OD
[25]
  OD value: 0.068 OD
[26]
  OD value: 0.084 OD
[27]
  OD value: 3.27 OD
[28]
  OD value: 2.42 OD
[29]
  OD value: 0.086 OD
[30]
  OD value: 0.076 OD

B2: antibody 11D11B11 (antibody, mouse IgG2a, kappa, V domains shown)
VH: DVKLVESGGGLVKPGGSLKLSCAASGFTFSSFSMSWFRQTPDKRLEWVATISSGGSSTYYPDSVKGRFTISRDNAKNTLYLQMTSLKSEDTAIFYCRGGYYGNYDPLDYWGQGTSVTVSA
VL: DIVMIQSQKFMSTSVGDRVSITCTASHNVDSNVAWYQQKPGQSPQALIYSASYRYSGVPDRFTGSGSGTDFTLTINNVQSEDLAEYFCQQYNSYPLTFGGGTRLEIKR
notes: Mouse monoclonal from hybridoma, stated mouse IgG1/Kappa; Used unlabelled as capture and biotin-labelled as detection antibody; also called 11D11B11-biotin
[1]
  OD value: 2.46 OD
[2]
  OD value: 0.076 OD
[3]
  OD value: 0.934 OD
[4]
  OD value: 4.24 OD
[5]
  OD value: 0.083 OD
[6]
  OD value: 0.071 OD
[7]
  OD value: 0.089 OD
[8]
  OD value: 3.74 OD
[9]
  OD value: 3.15 OD
[10]
  OD value: 4.22 OD
[11]
  OD value: 0.079 OD
[12]
  OD value: 0.21 OD
[13]
  OD value: 4.1 OD
[14]
  OD value: 2.69 OD
[15]
  OD value: 0.077 OD
[16]
  OD value: 0.066 OD
[17]
  OD value: 0.074 OD
[18]
  OD value: 0.066 OD
[19]
  OD value: 0.072 OD
[20]
  OD value: 0.069 OD
[21]
  OD value: 0.064 OD
[22]
  OD value: 0.064 OD
[23]
  OD value: 0.079 OD
[24]
  OD value: 0.077 OD
[25]
  OD value: 0.075 OD
[26]
  OD value: 0.075 OD
[27]
  OD value: 3.03 OD
[28]
  OD value: 1.54 OD
[29]
  OD value: 0.089 OD
[30]
  OD value: 0.074 OD
